The values below come from patent US5162210A, “Process for enzymatic hydrolysis of starch to glucose” (Iowa State University Research Foundation, priority 1990, dated 1992).

In general, Km refers to the concentration of substrate that gives half-maximal velocity. For orientation: kcat means the maximal rate divided by the concentration of active sites. In general, kcat/Km refers to the second-order rate constant that governs catalysis at low substrate concentration.

Substitutions are numbered along the chain they refer to. In names and notes the source's numbering stands.

Holding throughout (experiment): purified protein, by the assay type
Substrate in series [1]: OC[C@H]1O[C@H](OC[C@H]2OC(O)[C@H](O)[C@@H](O)[C@@H]2O)[C@H](O)[C@@H](O)[C@@H]1O
Substrate in series [2]: OC[C@H]1O[C@H](O[C@H]2[C@H](O)[C@@H](O)[C@@H](O[C@H]3[C@H](O)[C@@H](O)[C@@H](O[C@H]4[C@H](O)[C@@H](O)[C@@H](O[C@H]5[C@H](O)[C@@H](O)[C@@H](O[C@H]6[C@H](O)[C@@H](O)[C@@H](O[C@H]7[C@H](O)[C@@H](O)C(O)O[C@@H]7CO)O[C@@H]6CO)O[C@@H]5CO)O[C@@H]4CO)O[C@@H]3CO)O[C@@H]2CO)[C@H](O)[C@@H](O)[C@@H]1O
Substrate in series [3]: OC[C@H]1O[C@H](O[C@H]2[C@H](O)[C@@H](O)[C@H](O)O[C@@H]2CO)[C@H](O)[C@@H](O)[C@@H]1O
[4] abbreviates: other: 45 C., pH 4.5, 0.05M sodium acetate buffer, pH 4.5, 45.0 °C.
Where [5] appears, read: other: pH 4.4 and 50° C., pH 4.4, 50.0 °C.
Where [6] appears, read: other: 45 C., pH 4.5, 0.05M sodium acetate buffer.

B1: Aspergillus awamori glucoamylase, wild type (unmutated, expressed in Saccharomyces cerevisiae) (Aspergillus awamori) (protein)
chain: ATLDSWLSNEATVARTAILNNIGADGAWVSGADSGIVVASPSTDNPDYFYTWTRDSGLVLKTLVDLFRNGDTSLLSTIENYISAQAIVQGISNPSGDLSSGAGLGEPKFNVDETAYTGSWGRPQRDGPALRATAMIGFGQWLLDNGYTSTATDIVWPLVRNDLSYVAQYWNQTGYDLWEEVNGSSFFTIAVQHRALVEGSAFATAVGSSCSWCDSQAPEILCYLQSFWTGSFILANFDSSRSGKDANTLLGSIHTFDPEAACDDSTFQPCSPRALANHKEVVDSFRSIYTLNDGLSDSEAVAVGRYPEDTYYNGNPWFLCTLAAAEQLYDALYQWDKQGSLEVTDVSLDFFKALYSDAATGTYSSSSSTYSSIVDAVKTFADGFVSIVETHAASNGSMSEQYDKSDGEQLSARDLTWSYAALLTANNRRNSVVPASWGETSASSVPGTCAATSAIGTYSSVTVTSWPSIVATGGTTTTATPTGSGSVTSTSKTTATASKTSTSTSSTSCTTPTAVAVTFDLTATTTYGENIYLVGSISQLGDWETSDGIALSADKYTSSDPLWYVTVTLPAGESFEYKFIRIESDDSVEWESDPNREYTVPQACGTSTATVTDTWR
With B1, the Km came to 30.3 mM in series [1] (setting [4]); 36 mM in series [1] (setting [5]); 140 µM in series [2] (setting [4]); 220 µM in series [2] (setting [5]); 1400 µM in series [3] (setting [4]); 1730 µM in series [3] (setting [5]). The kcat was 0.34 s⁻¹ in series [1] (setting [4]); 0.487 ± 0.031 s⁻¹ in series [1] (setting [5]); 66.2 s⁻¹ in series [2] (setting [4]); 84 ± 2 s⁻¹ in series [2] (setting [5]); 9.1 s⁻¹ in series [3] (setting [4]); 14.4 ± 0.5 s⁻¹ in series [3] (setting [5]). The results for the kcat/Km in series [1] (setting [5]), in series [2] (setting [5]) and in series [3] (setting [5]) were 0.0135 mM⁻¹ s⁻¹, 390 mM⁻¹ s⁻¹ and 8.3 mM⁻¹ s⁻¹, respectively.

B2: Aspergillus awamori glucoamylase variant Trp178→Arg (Aspergillus awamori; W202R) (protein)
chain: B1 chain with W178R
Turning to B2, in series [1] (other: pH 4.4 and 50° C.), the Michaelis constant (Km) stood at 73.1 mM, the catalytic constant (kcat) is 0.0728 ± 0.0027 s⁻¹ and the kcat/Km came to 0.000997 mM⁻¹ s⁻¹. Further, in series [2] (other: pH 4.4 and 50° C.), the Km was determined as 260 µM, the kcat amounted to 16.6 ± 0.4 s⁻¹ and the catalytic efficiency (kcat/Km) was 63 mM⁻¹ s⁻¹. In addition, in series [3] (other: pH 4.4 and 50° C.), the Km stood at 1520 µM, the turnover number (kcat) is 1.86 ± 0.11 s⁻¹ and the kcat/Km stood at 1.22 mM⁻¹ s⁻¹.

B3: Aspergillus awamori glucoamylase variant Asn182→Ala (Aspergillus awamori; N206A) (protein)
chain: B1 chain with N182A
As to B3, in series [1] (other: pH 4.4 and 50° C.), the Michaelis-Menten constant (Km) amounted to 64.3 mM, the kcat was found to be 0.397 ± 0.019 s⁻¹ and the catalytic efficiency (kcat/Km) came out at 0.00618 mM⁻¹ s⁻¹. In series [2] (other: pH 4.4 and 50° C.), the Michaelis constant (Km) came out at 260 µM, the kcat is 65 ± 4 s⁻¹ and the kcat/Km is 250 mM⁻¹ s⁻¹. For the same protein, in series [3] (other: pH 4.4 and 50° C.), the Michaelis constant (Km) turned out to be 1380 µM, the kcat stood at 11.6 ± 0.3 s⁻¹ and the specificity constant (kcat/Km) was found to be 8.4 mM⁻¹ s⁻¹.

B4: Aspergillus awamori glucoamylase variant Ser119→Tyr (Ser→Tyr119, S→Y119) (Aspergillus awamori; S143Y) (protein)
chain: B1 chain with S119Y
Consider B4, for which the Km in series [1] (setting [6]) came to 66.2 mM; in series [2] (setting [6]) it was 200 µM; in series [3] (setting [6]), 1100 µM.

B5: Aspergillus awamori glucoamylase variant Gly183→Lys (Gly→Lys183, G→K183) (Aspergillus awamori; G207K) (protein)
chain: B1 chain with G183K
Consider B5, for which the Km in series [1] (setting [6]) was 39 mM; in series [2] (setting [6]) it was 140 µM; in series [3] (setting [6]) it was 1100 µM.

B6: Aspergillus awamori glucoamylase variant Leu177→His (Aspergillus awamori; L201H) (protein)
chain: B1 chain with L177H
On to B6, for which the Km came to 49.7 mM in series [1] (other: pH 4.4 and 50° C.); 300 µM in series [2] (other: pH 4.4 and 50° C.); 5300 µM in series [3] (other: pH 4.4 and 50° C.). For the same protein, the turnover number (kcat) amounted to 0.0438 ± 0.0018 s⁻¹ in series [1] (other: pH 4.4 and 50° C.); 15.9 ± 0.8 s⁻¹ in series [2] (other: pH 4.4 and 50° C.); 2.6 ± 0.1 s⁻¹ in series [3] (other: pH 4.4 and 50° C.). The specificity constant (kcat/Km) in series [1] (other: pH 4.4 and 50° C.) worked out at 0.000881 mM⁻¹ s⁻¹; in series [2] (other: pH 4.4 and 50° C.) it was 53 mM⁻¹ s⁻¹; in series [3] (other: pH 4.4 and 50° C.), 0.49 mM⁻¹ s⁻¹.

B7: Aspergillus awamori glucoamylase variant Ser184→His (Ser→His184, S→H184) (Aspergillus awamori; S208H) (protein)
chain: B1 chain with S184H
In the case of B7, the Km was found to be 26.7 mM in series [1] (setting [6]), 140 µM in series [2] (setting [6]) and 900 µM in series [3] (setting [6]).
